Data published in patent US20240358850A1.

Target: denatured collagen type-IV
Assay: cell-based or functional assay

B1: Humanized anti-HU177 antibody (antibody, human IgG1, kappa, V domains shown)
VH: QVTLKESGPALVKPTQTLTLTCTFSGFSLSTPGMGVWWIRQPPGKALEWLADIWWDDNKYTNPSLKSRLTISKDTSKNQVVLTMTNMDPVDTATYYCARRANYGNPYYAQDYWGQGTTVTVSS
VL: DIVMTQTPLSLPVTPGEPASISCRSSQSIVSSWGNTYLEWYLQKPGQSPQLLIYKVSNRFSGVPDRFSGSGSGTDFTLKISRVEAEDVGVYYCFQGSHVPWTFGQGTKVEIKR
inhibition of B16F10 melanoma cell adhesion to denatured collagen type-IV coated wells (antibody 100 µg/ml): > 40%

B2: MMAE-conjugated anti-HU177 antibody (Anti-HU177-MMAE) (antibody, V domains shown)
VH: QVTLKESGPALVKPTQTLTLTCTFSGFSLSTPGMGVWWIRQPPGKALEWLADIWWDDNKYTNPSLKSRLTISKDTSKNQVVLTMTNMDPVDTATYYCARRANYGNPYYAQDYWGQGTTVTVSS
VL: DIVMTQTPLSLPVTPGEPASISCRSSQSIVSSWGNTYLEWYLQKPGQSPQLLIYKVSNRFSGVPDRFSGSGSGTDFTLKISRVEAEDVGVYYCFQGSHVPWTFGQGTKVEIKR
modifications: MMAE conjugated with the Perkit Antibody MMAE Conjugation Kit; conjugation sites and chain not stated
inhibition of B16F10 melanoma cell adhesion to denatured collagen type-IV coated wells (antibody 100 µg/ml): > 40%
